The chains are these.
B1: K391I-L432W-L434M (protein)
chain: MFLKSLREQINLLKRQGDLRIINRPVDSYLEAAAIIRRSTETKAPVPLMTNIKGYPGCSIVGGLAALSSNPEYPLSRVAMSLGLSTTASAQSIVQYLIDGLKKTPYLPVEIDSNSAPCKQNILRGEDASLAHFPIPQVHQHDGNRYVNTWGVFIVESPDGQWCNWSIQRVQYLNDRQMIALVFPSQHISDIWEEWVKIGKPMPYALVQGCEPIVPYIAGLPLLERNVNEAEYIGALYGKGIEVVKCETHDLRVPASSEVVIEGYFAITREGVEGPFGEFAGYIPNENSLQPILSITAISWQDDPIWPVVAEGKPVDEYHTCSGIGDAAAIQNVLLTANLPVSFVWVPLYSACHLMIVSINRHWRQTHPDLTSEQLTKKVGDVIHQTRNSIILPKIVVLDDDVDPADTESLLWALATRIHPERKRYFYESCIWPMLSCYSEEERHNRKGKRVIIDALLPENHGAISSFDYAYPDDIKQRVLMHWETDFSHD
B2: C430S-L432F-L434W-S436A (protein)
chain: MFLKSLREQINLLKRQGDLRIINRPVDSYLEAAAIIRRSTETKAPVPLMTNIKGYPGCSIVGGLAALSSNPEYPLSRVAMSLGLSTTASAQSIVQYLIDGLKKTPYLPVEIDSNSAPCKQNILRGEDASLAHFPIPQVHQHDGNRYVNTWGVFIVESPDGQWCNWSIQRVQYLNDRQMIALVFPSQHISDIWEEWVKIGKPMPYALVQGCEPIVPYIAGLPLLERNVNEAEYIGALYGKGIEVVKCETHDLRVPASSEVVIEGYFAITREGVEGPFGEFAGYIPNENSLQPILSITAISWQDDPIWPVVAEGKPVDEYHTCSGIGDAAAIQNVLLTANLPVSFVWVPLYSACHLMIVSINRHWRQTHPDLTSEQLTKKVGDVIHQTRNSIKLPKIVVLDDDVDPADTESLLWALATRIHPERKRYFYESSIFPWLACYSEEERHNRKGKRVIIDALLPENHGAISSFDYAYPDDIKQRVLMHWETDFSHD
B3: K394R-L432F-L434W-S436A (protein)
chain: MFLKSLREQINLLKRQGDLRIINRPVDSYLEAAAIIRRSTETKAPVPLMTNIKGYPGCSIVGGLAALSSNPEYPLSRVAMSLGLSTTASAQSIVQYLIDGLKKTPYLPVEIDSNSAPCKQNILRGEDASLAHFPIPQVHQHDGNRYVNTWGVFIVESPDGQWCNWSIQRVQYLNDRQMIALVFPSQHISDIWEEWVKIGKPMPYALVQGCEPIVPYIAGLPLLERNVNEAEYIGALYGKGIEVVKCETHDLRVPASSEVVIEGYFAITREGVEGPFGEFAGYIPNENSLQPILSITAISWQDDPIWPVVAEGKPVDEYHTCSGIGDAAAIQNVLLTANLPVSFVWVPLYSACHLMIVSINRHWRQTHPDLTSEQLTKKVGDVIHQTRNSIKLPRIVVLDDDVDPADTESLLWALATRIHPERKRYFYESCIFPWLACYSEEERHNRKGKRVIIDALLPENHGAISSFDYAYPDDIKQRVLMHWETDFSHD
B4: K394R-L432F-L434W (protein)
chain: MFLKSLREQINLLKRQGDLRIINRPVDSYLEAAAIIRRSTETKAPVPLMTNIKGYPGCSIVGGLAALSSNPEYPLSRVAMSLGLSTTASAQSIVQYLIDGLKKTPYLPVEIDSNSAPCKQNILRGEDASLAHFPIPQVHQHDGNRYVNTWGVFIVESPDGQWCNWSIQRVQYLNDRQMIALVFPSQHISDIWEEWVKIGKPMPYALVQGCEPIVPYIAGLPLLERNVNEAEYIGALYGKGIEVVKCETHDLRVPASSEVVIEGYFAITREGVEGPFGEFAGYIPNENSLQPILSITAISWQDDPIWPVVAEGKPVDEYHTCSGIGDAAAIQNVLLTANLPVSFVWVPLYSACHLMIVSINRHWRQTHPDLTSEQLTKKVGDVIHQTRNSIKLPRIVVLDDDVDPADTESLLWALATRIHPERKRYFYESCIFPWLSCYSEEERHNRKGKRVIIDALLPENHGAISSFDYAYPDDIKQRVLMHWETDFSHD
B5: C430P-L432F-L434W-S436A (protein)
chain: MFLKSLREQINLLKRQGDLRIINRPVDSYLEAAAIIRRSTETKAPVPLMTNIKGYPGCSIVGGLAALSSNPEYPLSRVAMSLGLSTTASAQSIVQYLIDGLKKTPYLPVEIDSNSAPCKQNILRGEDASLAHFPIPQVHQHDGNRYVNTWGVFIVESPDGQWCNWSIQRVQYLNDRQMIALVFPSQHISDIWEEWVKIGKPMPYALVQGCEPIVPYIAGLPLLERNVNEAEYIGALYGKGIEVVKCETHDLRVPASSEVVIEGYFAITREGVEGPFGEFAGYIPNENSLQPILSITAISWQDDPIWPVVAEGKPVDEYHTCSGIGDAAAIQNVLLTANLPVSFVWVPLYSACHLMIVSINRHWRQTHPDLTSEQLTKKVGDVIHQTRNSIKLPKIVVLDDDVDPADTESLLWALATRIHPERKRYFYESPIFPWLACYSEEERHNRKGKRVIIDALLPENHGAISSFDYAYPDDIKQRVLMHWETDFSHD
B6: C430S-L432F-L434W (protein)
chain: MFLKSLREQINLLKRQGDLRIINRPVDSYLEAAAIIRRSTETKAPVPLMTNIKGYPGCSIVGGLAALSSNPEYPLSRVAMSLGLSTTASAQSIVQYLIDGLKKTPYLPVEIDSNSAPCKQNILRGEDASLAHFPIPQVHQHDGNRYVNTWGVFIVESPDGQWCNWSIQRVQYLNDRQMIALVFPSQHISDIWEEWVKIGKPMPYALVQGCEPIVPYIAGLPLLERNVNEAEYIGALYGKGIEVVKCETHDLRVPASSEVVIEGYFAITREGVEGPFGEFAGYIPNENSLQPILSITAISWQDDPIWPVVAEGKPVDEYHTCSGIGDAAAIQNVLLTANLPVSFVWVPLYSACHLMIVSINRHWRQTHPDLTSEQLTKKVGDVIHQTRNSIKLPKIVVLDDDVDPADTESLLWALATRIHPERKRYFYESSIFPWLSCYSEEERHNRKGKRVIIDALLPENHGAISSFDYAYPDDIKQRVLMHWETDFSHD
B7: N388M-L432F-L434W-S436A (protein)
chain: MFLKSLREQINLLKRQGDLRIINRPVDSYLEAAAIIRRSTETKAPVPLMTNIKGYPGCSIVGGLAALSSNPEYPLSRVAMSLGLSTTASAQSIVQYLIDGLKKTPYLPVEIDSNSAPCKQNILRGEDASLAHFPIPQVHQHDGNRYVNTWGVFIVESPDGQWCNWSIQRVQYLNDRQMIALVFPSQHISDIWEEWVKIGKPMPYALVQGCEPIVPYIAGLPLLERNVNEAEYIGALYGKGIEVVKCETHDLRVPASSEVVIEGYFAITREGVEGPFGEFAGYIPNENSLQPILSITAISWQDDPIWPVVAEGKPVDEYHTCSGIGDAAAIQNVLLTANLPVSFVWVPLYSACHLMIVSINRHWRQTHPDLTSEQLTKKVGDVIHQTRMSIKLPKIVVLDDDVDPADTESLLWALATRIHPERKRYFYESCIFPWLACYSEEERHNRKGKRVIIDALLPENHGAISSFDYAYPDDIKQRVLMHWETDFSHD
B8: L432F-L434W-S436A (protein)
chain: MFLKSLREQINLLKRQGDLRIINRPVDSYLEAAAIIRRSTETKAPVPLMTNIKGYPGCSIVGGLAALSSNPEYPLSRVAMSLGLSTTASAQSIVQYLIDGLKKTPYLPVEIDSNSAPCKQNILRGEDASLAHFPIPQVHQHDGNRYVNTWGVFIVESPDGQWCNWSIQRVQYLNDRQMIALVFPSQHISDIWEEWVKIGKPMPYALVQGCEPIVPYIAGLPLLERNVNEAEYIGALYGKGIEVVKCETHDLRVPASSEVVIEGYFAITREGVEGPFGEFAGYIPNENSLQPILSITAISWQDDPIWPVVAEGKPVDEYHTCSGIGDAAAIQNVLLTANLPVSFVWVPLYSACHLMIVSINRHWRQTHPDLTSEQLTKKVGDVIHQTRNSIKLPKIVVLDDDVDPADTESLLWALATRIHPERKRYFYESCIFPWLACYSEEERHNRKGKRVIIDALLPENHGAISSFDYAYPDDIKQRVLMHWETDFSHD
B9: L432F-L434W-S436N (protein)
chain: MFLKSLREQINLLKRQGDLRIINRPVDSYLEAAAIIRRSTETKAPVPLMTNIKGYPGCSIVGGLAALSSNPEYPLSRVAMSLGLSTTASAQSIVQYLIDGLKKTPYLPVEIDSNSAPCKQNILRGEDASLAHFPIPQVHQHDGNRYVNTWGVFIVESPDGQWCNWSIQRVQYLNDRQMIALVFPSQHISDIWEEWVKIGKPMPYALVQGCEPIVPYIAGLPLLERNVNEAEYIGALYGKGIEVVKCETHDLRVPASSEVVIEGYFAITREGVEGPFGEFAGYIPNENSLQPILSITAISWQDDPIWPVVAEGKPVDEYHTCSGIGDAAAIQNVLLTANLPVSFVWVPLYSACHLMIVSINRHWRQTHPDLTSEQLTKKVGDVIHQTRNSIKLPKIVVLDDDVDPADTESLLWALATRIHPERKRYFYESCIFPWLNCYSEEERHNRKGKRVIIDALLPENHGAISSFDYAYPDDIKQRVLMHWETDFSHD
B10: R387A-L432F-L434W-S436A (protein)
chain: MFLKSLREQINLLKRQGDLRIINRPVDSYLEAAAIIRRSTETKAPVPLMTNIKGYPGCSIVGGLAALSSNPEYPLSRVAMSLGLSTTASAQSIVQYLIDGLKKTPYLPVEIDSNSAPCKQNILRGEDASLAHFPIPQVHQHDGNRYVNTWGVFIVESPDGQWCNWSIQRVQYLNDRQMIALVFPSQHISDIWEEWVKIGKPMPYALVQGCEPIVPYIAGLPLLERNVNEAEYIGALYGKGIEVVKCETHDLRVPASSEVVIEGYFAITREGVEGPFGEFAGYIPNENSLQPILSITAISWQDDPIWPVVAEGKPVDEYHTCSGIGDAAAIQNVLLTANLPVSFVWVPLYSACHLMIVSINRHWRQTHPDLTSEQLTKKVGDVIHQTANSIKLPKIVVLDDDVDPADTESLLWALATRIHPERKRYFYESCIFPWLACYSEEERHNRKGKRVIIDALLPENHGAISSFDYAYPDDIKQRVLMHWETDFSHD
B11: N388M-L432F-L434W (protein)
chain: MFLKSLREQINLLKRQGDLRIINRPVDSYLEAAAIIRRSTETKAPVPLMTNIKGYPGCSIVGGLAALSSNPEYPLSRVAMSLGLSTTASAQSIVQYLIDGLKKTPYLPVEIDSNSAPCKQNILRGEDASLAHFPIPQVHQHDGNRYVNTWGVFIVESPDGQWCNWSIQRVQYLNDRQMIALVFPSQHISDIWEEWVKIGKPMPYALVQGCEPIVPYIAGLPLLERNVNEAEYIGALYGKGIEVVKCETHDLRVPASSEVVIEGYFAITREGVEGPFGEFAGYIPNENSLQPILSITAISWQDDPIWPVVAEGKPVDEYHTCSGIGDAAAIQNVLLTANLPVSFVWVPLYSACHLMIVSINRHWRQTHPDLTSEQLTKKVGDVIHQTRMSIKLPKIVVLDDDVDPADTESLLWALATRIHPERKRYFYESCIFPWLSCYSEEERHNRKGKRVIIDALLPENHGAISSFDYAYPDDIKQRVLMHWETDFSHD

The assay deals with 3-methylcrotonic acid. Type of assay: biochemical, Yersinia frederiksenii. The arrangement: key: “+” representing a low increase in activity; “++++” representing a high increase in activity.
Take B1: the “Activity relative to WT” value was “+”. To B2 belongs “+”; to B3, “+”; to B4, “+”. Take B5: the “Activity relative to WT” value was “+”. To B6 belongs “+”; to B7, “+”; to B8, “+”. To B9 belongs “+”; to B10, “+”; to B11, “+”.

The record behind these values is patent publication US20250327097A1, “ORGANISMS PRODUCING LESS CROTONIC ACID” (Global Bioenergies, priority 2021, published 2025).
